Source: paper PMC3526285

Test system: TRMT10C (MRPP1, RG9MTD1) (Homo sapiens)
Assay: EMSA
Details: apparent Kd; EMSA: 1 nM 5'-labelled pre-tRNA, 10 nM-1.2 uM protein, methylation/processing buffer (composition not in material) + 100 mM sucrose, 30 min at room …

Substance	Kd [nM]
(mt)pre-tRNAHis	203
(mt)pre-tRNAIle	255
